# Patent US20240307496A1, “METHOD AND PHARMACEUTICAL COMBINATION FOR PREVENTING CANCER RECURRENCE” (priority 2021, published 2024)
# B1: deglycosylated mIFN-α4: recombinant mouse interferon α4 (GenBank NP_034634) expressed in Pichia pastoris, glycosyl groups removed with glycosidase (protein, UniProt P07351 25-186, looked up)
# Interferon alpha-4: CDLPHTYNLGNKRALTVLEEMRRLPPLSCLKDRKDFGFPLEKVDNQQIQKAQAILVLRDLTQQILNLFTSKDLSATWNATLLDSFCNDLHQQLNDLKACVMQEPPLTQEDSLLAVRTYFHRITVYLRKKKHSLCAWEVIRAEVWRALSSSTNLLARLSEEKE
# modifications: deglycosylated
# notes: recombinant mouse interferon α4 (GenBank NP_034634) expressed in Pichia pastoris, glycosyl groups removed with glycosidase
# B2: PEG-mIFN-α4: deglycosylated recombinant mouse interferon α4 modified with 40kD Y-type polyethylene glycol succinimide ester (YPEG-NHS); SEQ ID NO: 6 (protein)
# chain: B1 Interferon alpha-4
# modifications: 40kD Y-type PEG; deglycosylated; peginterferon murine alpha 4
# How the values were obtained:
# [1] = system: transplanted liver cancer H22; assay: Prevention of recurrence of transplanted liver cancer H22 in mice; format: in vivo, BALB/c mice; details: for anticancer activity / prevention of tumor recurrence (conclusion): H22 recurrence simulated with low-density tumor inoculation; for Tumor incidence: tumor volume ≥ 62.5 mm^3 positive, then stopped 103 days, PEG-mIFN-α4 1 μg/mouse s.c.
# Source text: After tumor treatment, the tumor load in patient's body is relatively low, so a low tumor grafting volume is used to simulate the state after tumor treatment. […] Three days after tumor inoculation, they were randomly divided into the following experiment groups: PEG-mIFN-α4 group (N=28, 14 females, 14 males). PEG-mIFN-α4 combined with gemcitabine group (N=28, 14 females, 14 males), normal saline control group (N=28, 14 females, 14 males), and gemcitabine only group (N=28, 14 females, 14 males).
# PEG-mIFN-α4 was administered by subcutaneous injection on the back of the neck, with a dose of 1 microgram per mouse. Administration began on the day after grouping. In the PEG-mIFN-α4 group, PEG-mIFN-α4 was administered once a week for 9 weeks, and then stopped for 103 days. In the PEG-mIFN-α4 combined with gemcitabine group, PEG-mIFN-α4 and gemcitabine were administered once a week for 9 weeks, and then stopped for 103 days. In the gemcitabine alone group, gemcitabine was administered once a week for 9 weeks, and then stopped for 103 days. The normal saline control group was given an equal volume of normal saline. Gemcitabine was injected intraperitoneally at a dose of 60 mg/kg.
# (§1) The tumor incidence of each group was calculated when the tumor volume was greater than or equal to 62.5 mm^3, which was determined as positive for tumor occurrence.
# [2] = system: transplanted colorectal cancer CT26; assay: Prevention of recurrence of transplanted colorectal cancer CT26 in mice; format: in vivo, BALB/c mice; details: for anticancer activity / prevention of tumor recurrence (conclusion): CT26 recurrence simulated with low-density tumor inoculation; for survival rate during the observation period / Tumor incidence: gemcitabine 60 mg/kg i.p.; for Tumor incidence: tumor volume ≥ 62.5 mm^3 positive, then stopped 56 days
# Experimental: On the day after tumor inoculation, they were randomly divided into the following experiment groups: PEG-mIFN-α4 only group (N=20, 10 females and 10 males), normal saline control group (N=20, 10 females and 10 males), gemcitabine only group (N=20, 10 females and 10 males), and PEG-mIFN-α4 combined with gemcitabine group (N=20, 10 females and 10 males).
# PEG-mIFN-α4 was administered by subcutaneous injection on the back of the neck, with a dose of 1 microgram per mouse. Administration began on the day after grouping. In the PEG-miFN-α4 only group, PEG-mFN-α4 was administered once a week for 12 times, and then stopped for 56 days. In the PEG-mIFN-α4 combined with gemcitabine group, both PEG-mIFN-α4 and gemcitabine were administered once a week for 12 consecutive times, and then stopped for 56 days. In the gemcitabine only group, gemcitabine was administered once a week for 12 times, and then stopped for 56 days. The normal saline control group was given an equal volume of normal saline. Gemcitabine was administered by intraperitoneal injection at a dose of 60 mg/kg.
# as §1
# [3] = system: mouse fibroblast/encephalomyocarditis vinis (L929/EMCV); assay: L929/EMCV cytopathic inhibition method, specific activity; format: cell-based; details: commercial mIFN-α4 (R&D) as the standard
# Experimental: (§2) The bacterial endotoxin content of the deglycosylated mIFN-α4 stock solution was determined by the Limulus reagent method as lower than 60 EU/mg, specific activity was determined as 5.4×10^8 U/mg by using the commercial mIFN-α4 (R&D, catalog number 12115-1) as the standard, and by using the mouse fibroblast/encephalomyocarditis vinis (L929/EMCV) cytopathic inhibition method.
# as §2, with “PEG-mIFN-α4” for “deglycosylated mIFN-α4”, “15 EU/mg. Specific” for “60 EU/mg, specific”, “6.1×10^6” for “5.4×10^8”
# [4] = set-up: species or system BALB/c mice; details: mouse, in vivo, sc
# Source text: Note: In the pharmacokinetic analysis, for samples with blood concentration lower than the quantification lower limit, the sample before the peak blood concentration was counted as 0, and the sample after the peak was expressed as BLQ.
# [5] = by day 166 after tumor inoculation, once a week for 9 weeks, gemcitabine 60 mg/kg i.p.
# [6] = by day 134 after tumor inoculation, once a week for 12 times, PEG-mIFN-α4 1 μg/mouse s.c.
# [7] = by day 134 after tumor inoculation, once a week for 12 times, PEG-mIFN-α4 1 μg/mouse s.c., listed as gemcitabine
Molecule,anticancer activity / prevention of tumor recurrence (conclusion) [1],"Median survival time (time after tumor inoculation, days) [1, 5]","Tumor incidence [1, 5]","Tumor incidence ([1]; by day 166 after tumor inoculation, once a week for 9 weeks, gemcitabine 60 mg/kg i.p., listed as gemcitabine)",anticancer activity / prevention of tumor recurrence (conclusion) [2],"survival rate during the observation period [2, 6]","survival rate during the observation period [2, 7]","Tumor incidence [2, 6]","Tumor incidence [2, 7]",specific activity [3],Cl_F—obs [4],T1/2 [4],Tmax [4],Vz_F—obs [4],elimination half-life (T1) [4],plasma concentration peak time (Tmax) [4],"tumor incidence compared with normal saline control group ([1]; H22, day 166)","tumor incidence compared with normal saline control group ([2]; CT26, day 134)","Median survival time (time after tumor inoculation, days) [2, 6]"
"Nc1ccn([C@@H]2O[C@H](CO)[C@@H](O)C2(F)F)c(=O)n1 [Gemcitabine, reference compound]",could effectively prevent tumor recurrence,93.0 days,57.1%,57.1%,could effectively prevent tumor recurrence,period: 55.0%,55.0%,50.0%,50%,–,–,–,–,–,–,–,–,–,–
B1,–,–,–,–,–,–,–,–,–,5.4×10^8 U/mg,–,–,–,–,–,–,–,–,–
B2,could effectively prevent tumor recurrence,–,32.1%,–,could effectively prevent tumor recurrence,–,–,95%,–,6.1×10^6 U/mg,0.07 mL/h,28.3 h,24.0 h,2.91 mL,28.3 h,24 h,lower,lower,68.5 days
